Data on one molecule can be found in paper PMC5399293, “Hierarchical assembly of centriole subdistal appendages via centrosome binding proteins CCDC120 and CCDC68” (Nature Communications, 2017).

The assay concerns the target T1, MBP-hNinein-N (1–480 aa) (human, UniProt Q8N4C6 1-480).
T1 construct: human Ninein residues 1-480; also called purified 1–480 aa of hNinein
T1 sequence (looked up): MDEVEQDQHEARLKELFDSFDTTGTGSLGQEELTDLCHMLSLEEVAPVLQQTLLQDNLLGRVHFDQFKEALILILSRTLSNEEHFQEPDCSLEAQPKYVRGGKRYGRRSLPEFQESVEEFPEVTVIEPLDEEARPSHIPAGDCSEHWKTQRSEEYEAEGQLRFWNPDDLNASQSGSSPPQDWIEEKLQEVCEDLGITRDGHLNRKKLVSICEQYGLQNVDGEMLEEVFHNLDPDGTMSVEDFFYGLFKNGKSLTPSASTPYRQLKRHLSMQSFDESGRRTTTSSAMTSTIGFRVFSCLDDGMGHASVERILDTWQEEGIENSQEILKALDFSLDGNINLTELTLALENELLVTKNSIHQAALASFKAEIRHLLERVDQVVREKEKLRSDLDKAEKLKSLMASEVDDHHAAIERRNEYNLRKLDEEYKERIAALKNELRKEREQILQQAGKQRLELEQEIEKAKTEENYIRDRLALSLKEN
In words: pull-down; in vitro binding: purified GST-CCDC120 (1–320 aa) incubated with amylose resin beads coated with MBP fusions, 4 °C; immunoblot with anti-GST. The settings on record: both partners purified.

B1: GST-tagged CCDC120 (1–320 aa) (domain or fragment, human, UniProt Q96HB5-1 1-320, looked up)
chain: MEVKGQLISSPTFNAPAALFGEAAPQVKSERLRGLLDRQRTLQEALSLKLQELRKVCLQEAELTGQLPPECPLEPGERPQLVRRRPPTARAYPPPHPNQAHHSLCPAEELALEALEREVSVQQQIAAAARRLALAPDLSTEQRRRRRQVQADALRRLHELEEQLRDVRARLGLPVLPLPQPLPLSTGSVITTQGVCLGMRLAQLSQEDVVLHSESSSLSESGASHDNEEPHGCFSLAERPSPPKAWDQLRAVSGGSPERRTPWKPPPSDLYGDLKSRRNSVASPTSPTRSLPRSASSFEGRSVPATPVLTRGAGPQLCKP
notes: human CCDC120 (NM_001271836.1) residues 1-320; also called GST-CCDC120 (1–320 aa); 1–320 aa of CCDC120
B1: the binding result was “binds”.
